This note sets out measurements from patent US20260232827A1 (Zymeworks, published 2026).

For test [1], the target named is T1, human sodium-dependent phosphate transporter 2B (NaPi2b) (human, UniProt O95436 1-690).
T1 construct: UniProt ID is given as 095436 [sic]; also called hNaPi2b; Hu NaPi2b
T1 sequence: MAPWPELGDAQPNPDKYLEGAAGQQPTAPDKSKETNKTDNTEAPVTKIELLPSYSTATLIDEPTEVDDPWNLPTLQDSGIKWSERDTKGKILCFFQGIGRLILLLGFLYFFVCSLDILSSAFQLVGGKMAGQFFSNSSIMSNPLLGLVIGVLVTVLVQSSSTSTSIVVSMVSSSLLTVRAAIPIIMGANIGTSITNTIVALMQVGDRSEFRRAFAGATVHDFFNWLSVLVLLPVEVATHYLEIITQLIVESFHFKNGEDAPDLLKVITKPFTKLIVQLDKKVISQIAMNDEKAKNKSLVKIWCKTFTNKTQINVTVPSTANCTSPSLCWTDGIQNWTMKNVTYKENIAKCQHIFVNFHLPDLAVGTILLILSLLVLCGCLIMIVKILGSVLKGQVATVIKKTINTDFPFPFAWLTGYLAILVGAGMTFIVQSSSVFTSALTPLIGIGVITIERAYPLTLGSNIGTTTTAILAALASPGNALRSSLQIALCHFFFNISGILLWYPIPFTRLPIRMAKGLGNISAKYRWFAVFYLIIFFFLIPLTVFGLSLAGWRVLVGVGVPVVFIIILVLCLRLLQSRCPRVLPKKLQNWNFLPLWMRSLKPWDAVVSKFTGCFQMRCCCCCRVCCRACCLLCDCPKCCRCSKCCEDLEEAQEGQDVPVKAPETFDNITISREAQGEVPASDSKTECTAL
Nature of the test: flow cytometry, IGROV-1 cells (endogenous NaPi2b). Also noted: unit not given here. (In general: Flow cytometry measures light scatter and fluorescence of single cells or particles in a stream.)

Test [2] has as its target T1, human sodium-dependent phosphate …. The test is described as follows: flow cytometry, IGROV-1 cells (endogenous NaPi2b); apparent Kd.
Description: Briefly, cells were seeded at 50,000 cells/well in conical-bottom 96-well plates and treated with test antibody for 24 hours at 4° C. to prevent internalization. […] Following incubation and washing, fluorescence was detected by flow cytometry on a BD LSRFortessa™ Cell Analyzer (BD Biosciences, Franklin Lake, NJ) with 1,000 minimum events collected per well.

B1: v29454 (H3L2) (antibody, human IgG1, kappa, V domains shown)
VH: QVQLVQSGAEVKKPGASVKMSCKASGFTFTSYNVHWVRQAPGQGLEWIAAISPGNGDLSYAQKFQGRATLTVDTSTSTAYMELSSLRSEDTAVYYCARGRTGMGAVDYWGQGTLVTVSS
VL: DVQMTQSPSSLSASVGDRVTITCRASQDVYSYLNWYQQKPGKAVKLLIYYTSRLQSGVPSRFSGSGSGTDYTLTISSLQPEDFATYYCQQYNIFPWTFGQGTKLEIKR
notes: Humanized IgG1/kappa
Consider B1, for which the Bmax in test [1] was determined as 42300. Besides, the Kd in test [2] turned out to be 0.92 nM.

B2: v29451 (H2L3) (antibody, human IgG1, kappa, V domains shown)
VH: QVQLVQSGAEVKKPGASVKVSCKASGFTFTSYNVHWVRQAPGQGLEWIAAISPGNGDLSYAQKFQGRVTMTVDTSTSTVYMELSSLRSEDTAVYYCARGRTGMGAVDYWGQGTLVTVSS
VL: DVQMTQSPSSLSASVGDRVTITCRASQDVYSYLNWYQQKPGKAVKLLIYYTSRLQSGVPSRFSGSGSGTDYTLTISSLQPEDIATYYCQQYNIFPWTFGQGTKLEIKR
notes: Humanized IgG1/kappa
Consider B2, for which the Bmax in test [1] was 46200. The Kd in test [2] came to 1.49 nM.

B3: v29453 (H4L2) (antibody, human IgG1, kappa, V domains shown)
VH: QVQLVQSGAEVKKPGASVKMSCKASGFTFTSYNVHWVRQAPGQGLEWIAAISPGNGDLSYAQKFQGRATLTVDRSTSTAYMELSSLRSEDTAVYYCARGRTGMGAVDYWGQGTLVTVSS
VL: DVQMTQSPSSLSASVGDRVTITCRASQDVYSYLNWYQQKPGKAVKLLIYYTSRLQSGVPSRFSGSGSGTDYTLTISSLQPEDFATYYCQQYNIFPWTFGQGTKLEIKR
notes: Humanized IgG1/kappa; clones CL_#21506 and CL_#21508
The molecule B3 yielded a Bmax in test [1] of 44500. Further, the Kd in test [2] was determined as 0.82 nM.

B4: v29458 (H3L1) (antibody, human IgG1, kappa, V domains shown)
VH: QVQLVQSGAEVKKPGASVKMSCKASGFTFTSYNVHWVRQAPGQGLEWIAAISPGNGDLSYAQKFQGRATLTVDTSTSTAYMELSSLRSEDTAVYYCARGRTGMGAVDYWGQGTLVTVSS
VL: DIQMTQSPSSLSASVGDRVTITCRASQDVYSYLNWYQQKPGKAPKLLIYYTSRLQSGVPSRFSGSGSGTDFTLTISSLQPEDFATYYCQQYNIFPWTFGQGTKLEIKR
notes: Humanized IgG1/kappa
In test [1], B4 registered a Bmax of 40800. Also, the Kd in test [2] came out at 1.39 nM.

B5: v29449 (H4L3) (antibody, human IgG1, kappa, V domains shown)
VH: QVQLVQSGAEVKKPGASVKMSCKASGFTFTSYNVHWVRQAPGQGLEWIAAISPGNGDLSYAQKFQGRATLTVDRSTSTAYMELSSLRSEDTAVYYCARGRTGMGAVDYWGQGTLVTVSS
VL: DVQMTQSPSSLSASVGDRVTITCRASQDVYSYLNWYQQKPGKAVKLLIYYTSRLQSGVPSRFSGSGSGTDYTLTISSLQPEDIATYYCQQYNIFPWTFGQGTKLEIKR
notes: Humanized IgG1/kappa
Molecule B5 displayed a Bmax in test [1] of 44500. For the same molecule, in test [2], the Kd was determined as 0.79 nM.

B6: v29459 (H2L1) (antibody, human IgG1, kappa, V domains shown)
VH: QVQLVQSGAEVKKPGASVKVSCKASGFTFTSYNVHWVRQAPGQGLEWIAAISPGNGDLSYAQKFQGRVTMTVDTSTSTVYMELSSLRSEDTAVYYCARGRTGMGAVDYWGQGTLVTVSS
VL: DIQMTQSPSSLSASVGDRVTITCRASQDVYSYLNWYQQKPGKAPKLLIYYTSRLQSGVPSRFSGSGSGTDFTLTISSLQPEDFATYYCQQYNIFPWTFGQGTKLEIKR
notes: Humanized IgG1/kappa
For B6, the Bmax in test [1] worked out at 40900. In test [2], the Kd was 1.61 nM.

B7: v29450 (H3L3) (antibody, human IgG1, kappa, V domains shown)
VH: QVQLVQSGAEVKKPGASVKMSCKASGFTFTSYNVHWVRQAPGQGLEWIAAISPGNGDLSYAQKFQGRATLTVDTSTSTAYMELSSLRSEDTAVYYCARGRTGMGAVDYWGQGTLVTVSS
VL: DVQMTQSPSSLSASVGDRVTITCRASQDVYSYLNWYQQKPGKAVKLLIYYTSRLQSGVPSRFSGSGSGTDYTLTISSLQPEDIATYYCQQYNIFPWTFGQGTKLEIKR
notes: Humanized IgG1/kappa
For the molecule B7, in test [1], the Bmax was determined as 43800. For the same molecule, the Kd in test [2] came to 0.96 nM.

B8: v29457 (H4L1) (antibody, human IgG1, kappa, V domains shown)
VH: QVQLVQSGAEVKKPGASVKMSCKASGFTFTSYNVHWVRQAPGQGLEWIAAISPGNGDLSYAQKFQGRATLTVDRSTSTAYMELSSLRSEDTAVYYCARGRTGMGAVDYWGQGTLVTVSS
VL: DIQMTQSPSSLSASVGDRVTITCRASQDVYSYLNWYQQKPGKAPKLLIYYTSRLQSGVPSRFSGSGSGTDFTLTISSLQPEDFATYYCQQYNIFPWTFGQGTKLEIKR
notes: Humanized IgG1/kappa; clones CL_#21506 and CL_#21507
B8 came in with a Bmax in test [1] of 44500. Further, the Kd in test [2] came out at 1.73 nM.
